Measured values: paper PMC10786891, “Massively parallel profiling of RNA-targeting CRISPR-Cas13d”

T1: EsCas13d, nuclease-dead (Eubacterium siraeum, UniProt B0MS50, R295A;H300A;R849A;H854A)
T1 sequence: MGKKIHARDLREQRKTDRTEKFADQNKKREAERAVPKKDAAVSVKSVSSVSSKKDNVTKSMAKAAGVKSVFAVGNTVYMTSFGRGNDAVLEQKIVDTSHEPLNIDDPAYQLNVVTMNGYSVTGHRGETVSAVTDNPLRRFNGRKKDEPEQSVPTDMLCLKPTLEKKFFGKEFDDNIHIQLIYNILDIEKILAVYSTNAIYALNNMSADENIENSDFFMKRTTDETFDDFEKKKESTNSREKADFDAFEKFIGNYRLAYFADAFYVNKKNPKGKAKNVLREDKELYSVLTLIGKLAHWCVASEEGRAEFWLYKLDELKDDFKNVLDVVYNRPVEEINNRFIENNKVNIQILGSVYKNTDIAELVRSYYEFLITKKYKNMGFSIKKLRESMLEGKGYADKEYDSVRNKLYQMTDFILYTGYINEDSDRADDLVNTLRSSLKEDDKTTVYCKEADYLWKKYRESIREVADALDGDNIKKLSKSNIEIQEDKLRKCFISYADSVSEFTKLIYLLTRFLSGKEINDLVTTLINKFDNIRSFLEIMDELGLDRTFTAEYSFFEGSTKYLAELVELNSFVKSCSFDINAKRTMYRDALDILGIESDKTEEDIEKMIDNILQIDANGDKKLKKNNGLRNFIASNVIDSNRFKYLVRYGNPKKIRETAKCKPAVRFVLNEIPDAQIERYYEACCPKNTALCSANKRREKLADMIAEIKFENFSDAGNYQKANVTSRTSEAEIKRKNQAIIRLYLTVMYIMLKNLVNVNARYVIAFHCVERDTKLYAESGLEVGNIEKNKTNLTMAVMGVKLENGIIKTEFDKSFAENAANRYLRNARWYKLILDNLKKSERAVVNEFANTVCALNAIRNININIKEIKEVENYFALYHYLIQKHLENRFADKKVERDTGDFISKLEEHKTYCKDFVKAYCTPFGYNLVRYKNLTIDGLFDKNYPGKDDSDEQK

B1: target 1 insU 3' of 20,insC 3' of 19 (mixed)
RNA 1: CACCCGUGCAAAAAUGCAGGGGUCUAAAACUGAGCGGAUAACCUCUCUAUGG
RNA 2: GGGAAUGGAUCCACAUCUACGAAUUCGUACCAUUCAGAGAGGUUAUCCGCUCACCGAGAUCGGAAGAGCACACGU
B2: target 1 insC 3' of 22,insC 3' of 5 (mixed)
RNA 1: CACCCGUGCAAAAAUGCAGGGGUCUAAAACUGAGCGGAUAACCUCUCUAUGG
RNA 2: GGGAAUGGAUCCACAUCUACGAAUUCGUACCCAUAGAGAGGUUAUCCGCCUCACCGAGAUCGGAAGAGCACACGU
B3: target 1 U11A,G17U (mixed)
RNA 1: CACCCGUGCAAAAAUGCAGGGGUCUAAAACUGAGCGGAUAACCUCUCUAUGG
RNA 2: GGGAAUGGAUCCACAUCUACGAAUUCGUACCAUAUAGAGGAUAUCCGCUCACCGAGAUCGGAAGAGCACACGU
B4: target 2 MT 5'PFS AUU 3'PFS ACG (mixed)
RNA 1: CACCCGUGCAAAAUUGCAGGGGUCUAAAACCUUCUCCAAAUUGUUUCAUCCU
RNA 2: GGGAAUGGAUCCACAUCUACGAAUUCAUUAGGAUGAAACAAUUUGGAGAAGACGAGAUCGGAAGAGCACACGU
B5: target 2 MT 5'PFS CAG 3'PFS ACU (mixed)
RNA 1: CACCCGUGCAAAAUUGCAGGGGUCUAAAACCUUCUCCAAAUUGUUUCAUCCU
RNA 2: GGGAAUGGAUCCACAUCUACGAAUUCCAGAGGAUGAAACAAUUUGGAGAAGACUAGAUCGGAAGAGCACACGU
B6: target 2 MT 5'PFS UGA 3'PFS CAG (mixed)
RNA 1: CACCCGUGCAAAAUUGCAGGGGUCUAAAACCUUCUCCAAAUUGUUUCAUCCU
RNA 2: GGGAAUGGAUCCACAUCUACGAAUUCUGAAGGAUGAAACAAUUUGGAGAAGCAGAGAUCGGAAGAGCACACGU
B7: target 2 MT 5'PFS AUU 3'PFS AUU (mixed)
RNA 1: CACCCGUGCAAAAUUGCAGGGGUCUAAAACCUUCUCCAAAUUGUUUCAUCCU
RNA 2: GGGAAUGGAUCCACAUCUACGAAUUCAUUAGGAUGAAACAAUUUGGAGAAGAUUAGAUCGGAAGAGCACACGU
B8: target 2 MT 5'PFS UUG 3'PFS CCA (mixed)
RNA 1: CACCCGUGCAAAAUUGCAGGGGUCUAAAACCUUCUCCAAAUUGUUUCAUCCU
RNA 2: GGGAAUGGAUCCACAUCUACGAAUUCUUGAGGAUGAAACAAUUUGGAGAAGCCAAGAUCGGAAGAGCACACGU
B9: target 2 MT 5'PFS GAC 3'PFS CAC (mixed)
RNA 1: CACCCGUGCAAAAUUGCAGGGGUCUAAAACCUUCUCCAAAUUGUUUCAUCCU
RNA 2: GGGAAUGGAUCCACAUCUACGAAUUCGACAGGAUGAAACAAUUUGGAGAAGCACAGAUCGGAAGAGCACACGU
B10: target 2 MT 5'PFS GAG 3'PFS AAC (mixed)
RNA 1: CACCCGUGCAAAAUUGCAGGGGUCUAAAACCUUCUCCAAAUUGUUUCAUCCU
RNA 2: GGGAAUGGAUCCACAUCUACGAAUUCGAGAGGAUGAAACAAUUUGGAGAAGAACAGAUCGGAAGAGCACACGU
B11: target 2 MT 5'PFS GUC 3'PFS UCA (mixed)
RNA 1: CACCCGUGCAAAAUUGCAGGGGUCUAAAACCUUCUCCAAAUUGUUUCAUCCU
RNA 2: GGGAAUGGAUCCACAUCUACGAAUUCGUCAGGAUGAAACAAUUUGGAGAAGUCAAGAUCGGAAGAGCACACGU
B12: target 2 MT 5'PFS GAC 3'PFS CAA (mixed)
RNA 1: CACCCGUGCAAAAUUGCAGGGGUCUAAAACCUUCUCCAAAUUGUUUCAUCCU
RNA 2: GGGAAUGGAUCCACAUCUACGAAUUCGACAGGAUGAAACAAUUUGGAGAAGCAAAGAUCGGAAGAGCACACGU
B13: target 2 MT 5'PFS GAC 3'PFS CAG (mixed)
RNA 1: CACCCGUGCAAAAUUGCAGGGGUCUAAAACCUUCUCCAAAUUGUUUCAUCCU
RNA 2: GGGAAUGGAUCCACAUCUACGAAUUCGACAGGAUGAAACAAUUUGGAGAAGCAGAGAUCGGAAGAGCACACGU
B14: target 2 MT 5'PFS CGU 3'PFS CCG (mixed)
RNA 1: CACCCGUGCAAAAUUGCAGGGGUCUAAAACCUUCUCCAAAUUGUUUCAUCCU
RNA 2: GGGAAUGGAUCCACAUCUACGAAUUCCGUAGGAUGAAACAAUUUGGAGAAGCCGAGAUCGGAAGAGCACACGU
B15: target 2 MT 5'PFS GGU 3'PFS CCA (mixed)
RNA 1: CACCCGUGCAAAAUUGCAGGGGUCUAAAACCUUCUCCAAAUUGUUUCAUCCU
RNA 2: GGGAAUGGAUCCACAUCUACGAAUUCGGUAGGAUGAAACAAUUUGGAGAAGCCAAGAUCGGAAGAGCACACGU
B16: target 2 MT 5'PFS AUU 3'PFS ACU (mixed)
RNA 1: CACCCGUGCAAAAUUGCAGGGGUCUAAAACCUUCUCCAAAUUGUUUCAUCCU
RNA 2: GGGAAUGGAUCCACAUCUACGAAUUCAUUAGGAUGAAACAAUUUGGAGAAGACUAGAUCGGAAGAGCACACGU
B17: target 2 MT 5'PFS AAG 3'PFS AAA (mixed)
RNA 1: CACCCGUGCAAAAUUGCAGGGGUCUAAAACCUUCUCCAAAUUGUUUCAUCCU
RNA 2: GGGAAUGGAUCCACAUCUACGAAUUCAAGAGGAUGAAACAAUUUGGAGAAGAAAAGAUCGGAAGAGCACACGU
B18: target 2 MT 5'PFS GAG 3'PFS AAA (mixed)
RNA 1: CACCCGUGCAAAAUUGCAGGGGUCUAAAACCUUCUCCAAAUUGUUUCAUCCU
RNA 2: GGGAAUGGAUCCACAUCUACGAAUUCGAGAGGAUGAAACAAUUUGGAGAAGAAAAGAUCGGAAGAGCACACGU
B19: target 2 MT 5'PFS GCG 3'PFS AAA (mixed)
RNA 1: CACCCGUGCAAAAUUGCAGGGGUCUAAAACCUUCUCCAAAUUGUUUCAUCCU
RNA 2: GGGAAUGGAUCCACAUCUACGAAUUCGCGAGGAUGAAACAAUUUGGAGAAGAAAAGAUCGGAAGAGCACACGU
B20: target 2 MT 5'PFS GUC 3'PFS UCU (mixed)
RNA 1: CACCCGUGCAAAAUUGCAGGGGUCUAAAACCUUCUCCAAAUUGUUUCAUCCU
RNA 2: GGGAAUGGAUCCACAUCUACGAAUUCGUCAGGAUGAAACAAUUUGGAGAAGUCUAGAUCGGAAGAGCACACGU
B21: target 2 MT 5'PFS UGG 3'PFS AAA (mixed)
RNA 1: CACCCGUGCAAAAUUGCAGGGGUCUAAAACCUUCUCCAAAUUGUUUCAUCCU
RNA 2: GGGAAUGGAUCCACAUCUACGAAUUCUGGAGGAUGAAACAAUUUGGAGAAGAAAAGAUCGGAAGAGCACACGU
B22: target 2 MT 5'PFS GGU 3'PFS CCG (mixed)
RNA 1: CACCCGUGCAAAAUUGCAGGGGUCUAAAACCUUCUCCAAAUUGUUUCAUCCU
RNA 2: GGGAAUGGAUCCACAUCUACGAAUUCGGUAGGAUGAAACAAUUUGGAGAAGCCGAGAUCGGAAGAGCACACGU
B23: target 2 MT 5'PFS GAC 3'PFS CAU (mixed)
RNA 1: CACCCGUGCAAAAUUGCAGGGGUCUAAAACCUUCUCCAAAUUGUUUCAUCCU
RNA 2: GGGAAUGGAUCCACAUCUACGAAUUCGACAGGAUGAAACAAUUUGGAGAAGCAUAGAUCGGAAGAGCACACGU
B24: target 2 MT 5'PFS GUC 3'PFS UCC (mixed)
RNA 1: CACCCGUGCAAAAUUGCAGGGGUCUAAAACCUUCUCCAAAUUGUUUCAUCCU
RNA 2: GGGAAUGGAUCCACAUCUACGAAUUCGUCAGGAUGAAACAAUUUGGAGAAGUCCAGAUCGGAAGAGCACACGU
B25: target 2 MT 5'PFS GUC 3'PFS UCG (mixed)
RNA 1: CACCCGUGCAAAAUUGCAGGGGUCUAAAACCUUCUCCAAAUUGUUUCAUCCU
RNA 2: GGGAAUGGAUCCACAUCUACGAAUUCGUCAGGAUGAAACAAUUUGGAGAAGUCGAGAUCGGAAGAGCACACGU
B26: target 2 MT 5'PFS UUA 3'PFS UAA (mixed)
RNA 1: CACCCGUGCAAAAUUGCAGGGGUCUAAAACCUUCUCCAAAUUGUUUCAUCCU
RNA 2: GGGAAUGGAUCCACAUCUACGAAUUCUUAAGGAUGAAACAAUUUGGAGAAGUAAAGAUCGGAAGAGCACACGU
B27: target 2 MT 5'PFS CUC 3'PFS CAG (mixed)
RNA 1: CACCCGUGCAAAAUUGCAGGGGUCUAAAACCUUCUCCAAAUUGUUUCAUCCU
RNA 2: GGGAAUGGAUCCACAUCUACGAAUUCCUCAGGAUGAAACAAUUUGGAGAAGCAGAGAUCGGAAGAGCACACGU
B28: target 2 MT 5'PFS GAG 3'PFS AAG (mixed)
RNA 1: CACCCGUGCAAAAUUGCAGGGGUCUAAAACCUUCUCCAAAUUGUUUCAUCCU
RNA 2: GGGAAUGGAUCCACAUCUACGAAUUCGAGAGGAUGAAACAAUUUGGAGAAGAAGAGAUCGGAAGAGCACACGU

These binders were tested against T1, EsCas13d, nuclease-dead (assay: crRNA (strand 1, pre-loaded); Mg2+; 40 mM Tris-HCl pH 7.5, 150 mM NaCl, 6 mM MgCl2, 1 mM DTT, 0.1% Tween-20, 0.2 mg/ml BSA; 25 C; 10 min per concentration, then washed). Conditions: tags: His6-TwinStrep-SUMO cleaved; N-terminal SNAP kept (SNAP-Surface 488); label: 3' end held by stalled T7 RNA polymerase.
With B1 the Kd was 50 ± 17 nM.
Binder B2 has a Kd of 60 ± 30 nM.
B3 showed a Kd of 84 ± 29 nM.
B4 was tested, and the Kd was 9 ± 1 nM.
Work on B5 yielded a Kd of 6.2 ± 2.2 nM.
Work on B6 yielded a Kd of 6.6 ± 0.7 nM.
B7 showed a Kd of 5.5 ± 0.4 nM.
Binder B8 has a Kd of 37 ± 10 nM.
Work on B9 yielded a Kd of 12.9 ± 2.4 nM.
B10 showed a Kd of 6.1 ± 1 nM.
B11 showed a Kd of 17 ± 5 nM.
In the case of B12, the Kd is reported as 6.2 ± 1.2 nM.
Work on B13 yielded a Kd of 17 ± 4 nM.
Binder B14 has a Kd of ~40 nM.
Binder B15 has a Kd of 24 ± 5 nM.
B16 showed a Kd of 10.7 ± 1.3 nM.
Work on B17 yielded a Kd of 3.7 ± 0.7 nM.
Work on B18 yielded a Kd of 4.1 ± 0.6 nM.
Binder B19 has a Kd of 9.9 ± 2.3 nM.
B20 showed a Kd of 25.4 ± 3.3 nM.
For B21, the Kd was 3.3 ± 0.4 nM.
In the case of B22, the Kd is reported as 17.4 ± 1.8 nM.
B23 gave a Kd of 7.4 ± 1.2 nM.
B24 gave a Kd of 42 ± 6 nM.
B25 showed a Kd of 28 ± 6 nM.
B26 was tested, and the Kd was 17 ± 4 nM.
B27 gave a Kd of 1.93 ± 0.21 nM.
B28 gave a Kd of 5.6 ± 0.5 nM.
